Target: T1, SOX2 (Homo sapiens, UniProt P48431)
T1 construct: endogenous in cells; host or cells: nuclear extract of GSC7 and GSC328 (patient-derived glioblastoma stem cell lines)
Experiment: Biotinylated enhancer pull down with nuclear extract and mass spectrometry
Format: binding
Details: normalised to random sequence 599
Procedure: The oligo was PCR-amplified using biotinylated primers. The PCR product was then SPRI purified to remove biotinylated primer dimers. These dsDNA fragments were incubated with nuclear extract from GSC7 and GSC328. They were then bound to streptavidin magnetic beads, washed three times and the frozen beads were sent for mass spectrometry analysis.
All the buffers were prepared the day before, passed through a […] filter (except the dialysis buffer) and left at 4° C. overnight. DTT and protease inhibitors were added just before use. The cells were scraped on the media and collected on 50 ml falcons, which were spun at 1350 rcf 5 minutes at 4° C. The pellet was resuspended in 50 ml of ice cold PBS, an aliquot was taken for cell counting, and spun again spun at 1350 rcf 5 minutes at 4° C. The pellet was then resuspended in 5 ml per 40 million cells of ice cold buffer A (10 mM HEPES pH 7.9, 1.5 mM MgCl2, 10 mM KCl, 0.5 mM DTT, protease inhibitors (Complete, Roche, 11697498001)) and incubated on ice for 10 min. The cell suspension was transferred to a glass Dounce homogenizer and dounced 40 times on ice. The cell suspension was transferred to a falcon and centrifuged at 1350 rcf for 10 min at 4° C. […] The supernatant was collected into new 1.5 ml tubes and quantified (Pierce BCA Protein Assay Kit, Thermo Scientific, Cat 23225). […]

T1 sequence (P48431 whole entry): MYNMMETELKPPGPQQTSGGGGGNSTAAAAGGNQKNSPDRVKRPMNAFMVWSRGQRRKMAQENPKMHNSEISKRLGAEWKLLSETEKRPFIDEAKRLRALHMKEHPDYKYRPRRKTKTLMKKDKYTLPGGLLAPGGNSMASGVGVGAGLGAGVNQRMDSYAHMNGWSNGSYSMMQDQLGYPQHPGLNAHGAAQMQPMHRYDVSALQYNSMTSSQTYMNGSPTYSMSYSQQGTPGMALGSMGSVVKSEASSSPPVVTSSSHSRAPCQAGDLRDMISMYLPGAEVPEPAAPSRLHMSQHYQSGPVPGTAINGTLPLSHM

B1: ID1101: enhancer fragment, SEQ ID NO: 4 (nucleic acid)
DNA: GTGAGTGTGACTCACATGCTGGCATCAGAGCCCCTCTTAGAGCTTAGAACACTGGGCCTCTGTCAGGCAAAGAAAAGGAGTCCCTATGAATAGCCATCTCCACAAATAGCAGTTACTGTCACTTCTTAAAAGACACAAGCATGGCTGGAGACCGGCACTG
**Q.** What does the source list for B1?
**A.** SOX2 enrichment in pull down (mass spectrometry) (G7 nuclear extract): 4.4 fold; SOX2 enrichment in pull down (mass spectrometry) (GSC328 nuclear extract): 23 fold

— patent publication US20240092847A1, “FUNCTIONAL NUCLEIC ACID MOLECULE AND METHOD” (The University Court of The University of Edinburgh, priority 2021, published 2024)
